Reference: publication PMC6026317 (2018)
Ends that are not written are not given here.

B1: 21C25 (C-terminal 25-residue peptide of FGF21) (peptide)
peptide: PPDVGSSDPLSMVGPSQGRSPSYAS-NH2
B2: 21C25 G170A (peptide)
chain: PPDVGSSDPLSMVAPSQGRSPSYAS-NH2
B3: 21C25 S176A (peptide)
chain: PPDVGSSDPLSMVGPSQGRAPSYAS-NH2
B4: 21C25 V160A (peptide)
chain: PPDAGSSDPLSMVGPSQGRSPSYAS-NH2
B5: 21C25 G174A (peptide)
chain: PPDVGSSDPLSMVGPSQARSPSYAS-NH2
B6: 21C25 S172A (peptide)
chain: PPDVGSSDPLSMVGPAQGRSPSYAS-NH2
B7: 21C25 Q173A (peptide)
chain: PPDVGSSDPLSMVGPSAGRSPSYAS-NH2
B8: 21C25 G161A (peptide)
chain: PPDVASSDPLSMVGPSQGRSPSYAS-NH2
B9: 21C25 P158A (peptide)
chain: PADVGSSDPLSMVGPSQGRSPSYAS-NH2
B10: 21C25 S163A (peptide)
chain: PPDVGSADPLSMVGPSQGRSPSYAS-NH2
B11: 21C25 V169A (peptide)
chain: PPDVGSSDPLSMAGPSQGRSPSYAS-NH2
B12: 21C25 S178A (peptide)
chain: PPDVGSSDPLSMVGPSQGRSPAYAS-NH2
B13: 21C25 R175A (peptide)
chain: PPDVGSSDPLSMVGPSQGASPSYAS-NH2
B14: 21C25 Y179A (peptide)
chain: PPDVGSSDPLSMVGPSQGRSPSAAS-NH2
B15: 21C25 S181A (peptide)
chain: PPDVGSSDPLSMVGPSQGRSPSYAA-NH2
B16: 21C25 D159A (peptide)
chain: PPAVGSSDPLSMVGPSQGRSPSYAS-NH2
B17: 21C25 S167A (peptide)
chain: PPDVGSSDPLAMVGPSQGRSPSYAS-NH2
B18: 21C25 P157A (peptide)
chain: APDVGSSDPLSMVGPSQGRSPSYAS-NH2
B19: 21C25 P171A (peptide)
chain: PPDVGSSDPLSMVGASQGRSPSYAS-NH2
B20: 21C25 S162A (peptide)
chain: PPDVGASDPLSMVGPSQGRSPSYAS-NH2
B21: 21C25 P177A (peptide)
chain: PPDVGSSDPLSMVGPSQGRSASYAS-NH2

Biological target: T1, Soluble human FGFR1c/KLB receptor complex (FGFR1c ectodomain-Fc with soluble KLB) (human, UniProt P11362 22-376; Q86Z14 1-996)
T1 sequence (P11362 22-376, chain 1 of 2): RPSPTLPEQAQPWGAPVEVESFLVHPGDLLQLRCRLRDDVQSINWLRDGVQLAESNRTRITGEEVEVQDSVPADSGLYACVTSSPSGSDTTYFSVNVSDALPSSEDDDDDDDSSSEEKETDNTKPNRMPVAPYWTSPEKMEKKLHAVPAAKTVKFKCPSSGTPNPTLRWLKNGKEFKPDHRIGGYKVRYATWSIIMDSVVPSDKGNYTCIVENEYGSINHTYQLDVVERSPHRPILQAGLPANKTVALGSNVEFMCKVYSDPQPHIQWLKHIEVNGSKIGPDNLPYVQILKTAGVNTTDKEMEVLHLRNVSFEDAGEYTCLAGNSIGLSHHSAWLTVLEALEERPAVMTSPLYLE
T1 sequence (Q86Z14 53-996, chain 2 of 2): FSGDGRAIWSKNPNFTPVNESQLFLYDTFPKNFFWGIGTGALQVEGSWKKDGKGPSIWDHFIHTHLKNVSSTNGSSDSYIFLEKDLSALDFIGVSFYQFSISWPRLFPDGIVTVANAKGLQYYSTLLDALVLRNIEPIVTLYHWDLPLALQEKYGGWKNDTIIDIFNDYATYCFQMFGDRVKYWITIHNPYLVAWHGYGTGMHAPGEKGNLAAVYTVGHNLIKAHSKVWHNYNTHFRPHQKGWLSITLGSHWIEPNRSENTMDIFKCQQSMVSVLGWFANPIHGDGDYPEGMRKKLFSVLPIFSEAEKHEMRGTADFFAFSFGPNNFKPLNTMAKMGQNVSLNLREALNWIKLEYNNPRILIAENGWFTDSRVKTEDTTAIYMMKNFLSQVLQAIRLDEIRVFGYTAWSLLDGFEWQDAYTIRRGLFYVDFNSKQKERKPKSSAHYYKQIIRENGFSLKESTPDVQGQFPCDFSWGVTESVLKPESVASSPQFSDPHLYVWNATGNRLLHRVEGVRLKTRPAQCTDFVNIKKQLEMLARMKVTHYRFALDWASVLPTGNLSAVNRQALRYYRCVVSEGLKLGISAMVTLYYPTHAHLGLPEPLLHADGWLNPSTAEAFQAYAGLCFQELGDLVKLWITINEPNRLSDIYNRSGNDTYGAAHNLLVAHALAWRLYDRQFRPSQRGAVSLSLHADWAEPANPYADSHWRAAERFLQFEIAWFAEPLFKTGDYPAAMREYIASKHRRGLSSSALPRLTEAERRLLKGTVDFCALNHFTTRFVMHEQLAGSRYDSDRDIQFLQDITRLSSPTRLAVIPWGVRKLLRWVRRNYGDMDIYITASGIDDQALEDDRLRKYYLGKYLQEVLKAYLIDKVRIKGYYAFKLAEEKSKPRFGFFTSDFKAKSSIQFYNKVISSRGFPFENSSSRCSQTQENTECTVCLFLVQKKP
Assay: AlphaScreen competition with biotinylated FGF21

Binder | IC50 [nM]
B1 | 150

Biological target: T1, Soluble human FGFR1c/KLB receptor …
Assay: AlphaScreen competition with biotinylated FGF21
Remark: another data set of the same source

Binder | IC50 [nM]
B2 | 180
B3 | 3140
B4 | 3980
B5 | 150
B6 | 120
B7 | 70
B8 | 160
B9 | 890
B10 | 190
B11 | 3110
B12 | 2870
B13 | 50
B14 | 2580
B15 | 50
B16 | 1390
B17 | 200
B18 | 420
B19 | 130
B20 | 2130
B21 | 2500
